Laboratory results as given in patent US20220064286A1 (Genentech, published 2022).

How the values were obtained:
human TIGIT protein [1] = target: T1, human TIGIT protein (human, UniProt Q495A1 22-141, limits assumed); assay: SPR, captured mAb
T1 construct: Recombinant protein (Genentech) used in ELISA screening and as SPR analyte; also called TIGIT antigen
T1 sequence: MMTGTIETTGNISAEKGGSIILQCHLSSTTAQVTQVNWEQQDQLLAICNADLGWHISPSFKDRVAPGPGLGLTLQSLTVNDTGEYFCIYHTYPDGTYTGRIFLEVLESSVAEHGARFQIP
Description: (§1) Briefly, a series S CM5 biosensor chip was activated with N-ethyl-N′-(3-dimethylaminopropyl)-carbodiimide hydrochloride (EDC) and N-hydroxysuccinimide (NHS) reagents according to the supplier's (GE Healthcare Biosciences, Piscataway, N.J.) instructions, and a human antibody capture kit was applied to couple goat anti-human Fc IgGs in order to achieve approximately 10,000 response units (RU) on each flow cell, followed by blocking un-reacted groups with 1M ethanolamine.
(§2) (flow rate: 30 μl/min) with no regeneration between injections. The sensorgrams were recorded and evaluated by BIAcore™ T200 Evaluation Software (version 2.0) after subtraction of reference cell signal. Association rates (kₒₙ) and dissociation rates (koff) were calculated using a simple one-to-one Langmuir binding model. The equilibrium dissociation constant (KD) was calculated as the ratio koff/kₒₙ.
(§3) The first humanized versions, h6B2, L1H1, h10A5.L1H1, h7E7, L1H1, and h15C8.L1H1, which contain both rat CDRs and framework residues at Vernier positions, and the fully humanized versions, h6B2.L2H5, h10A5.L4H4, h7E7.L5H9, and h15C8.L5H9, which contain only rat CDRs were subject to BIAcore affinity measurement by comparison with original rat antibodies, rat6B2, rat10A5, rat7E7 and rat 15C8. For binding affinity determinations of TIGIT antibodies against human TIGIT, cynomolgus monkey TIGIT and human alanine-scanned TIGIT mutants by single-cycle kinetics, Surface Plasmon Resonance (SRP) measurement with a BIACORE™-T200 instrument was used, as described above.

[2] = target: T2, cynomolgus monkey (cyno) TIGIT protein (cynomolgus monkey, UniProt A0A7N9I9V4 89-209); assay: SPR, captured mAb
T2 sequence (A0A7N9I9V4 entry or part of it): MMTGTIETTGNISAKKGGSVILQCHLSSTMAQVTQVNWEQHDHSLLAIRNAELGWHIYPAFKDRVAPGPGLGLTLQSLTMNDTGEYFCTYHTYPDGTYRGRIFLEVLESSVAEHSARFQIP
Description: as §1, §2, §3

human TIGIT protein [3] = target: T1, human TIGIT protein; assay: SPR, monovalent affinity
[4] = target: T2, cynomolgus monkey (cyno) TIGIT protein; assay: SPR, monovalent affinity

B1: h15C8.L1H1 (antibody, V domains shown)
VH: EVQLVQSGAEVKKPGASVKVSCKASGYTFTEHSIYWLRQAPGQRLEIIGRIDPKNGRTYFVDKFKNRATLTTDTSASTAYMELSSLRSEDTAVYFCARIDGFYFDFWGQGTLVTVSS
VL: DIQLTQSPSFLSASVGDRVTITCKGSQNVNKYLVWYQQKPGKAPKLLIYSTDNLQSGIPSRFSGSGSGTEYTLTISSLQPEDFATYFCYQYNNGFTFGQGTKVEIK
notes: First humanized version; FR/HVR pieces in order; also called h1.15C8.L1H1
Question: Which results are given for B1?
Answer: Kd (human TIGIT protein [1]): 0.39 nM; koff (human TIGIT protein [1]): 0.000357 s⁻¹; kon (human TIGIT protein [1]): 922000 M⁻¹ s⁻¹; Kd [2]: 0.94 nM; koff [2]: 0.000464 s⁻¹; kon [2]: 493000 M⁻¹ s⁻¹; Kd (human TIGIT protein [3]): 0.58 nM; Kd [4]: 1.39 nM

B2: h15C8.L3H1 (antibody, V domains shown)
VH: EVQLVQSGAEVKKPGASVKVSCKASGYTFTEHSIYWLRQAPGQRLEIIGRIDPKNGRTYFVDKFKNRATLTTDTSASTAYMELSSLRSEDTAVYFCARIDGFYFDFWGQGTLVTVSS
VL: DIQLTQSPSFLSASVGDRVTITCKGSQNVNKYLVWYQQKPGKAPKLLIYSTDNLQSGIPSRFSGSGSGTEFTLTISSLQPEDFATYFCYQYNNGFTFGQGTKVEIK
notes: VL: Y71F against h15C8.L1H1; FR/HVR pieces
Question: B2 was tested. Which Kd (human TIGIT protein [1]) did it give?
Answer: 0.84 nM

Question: What about the koff (human TIGIT protein [1]) of the same binder?
Answer: 0.000533 s⁻¹

Question: And the kon (human TIGIT protein [1])?
Answer: 631000 M⁻¹ s⁻¹

Question: What about the Kd [2] of the same binder?
Answer: 1.75 nM

Question: What about the koff [2] of the same binder?
Answer: 0.000588 s⁻¹

Question: What about the kon [2] of the same binder?
Answer: 336000 M⁻¹ s⁻¹

B3: h15C8.L4H1 (antibody, V domains shown)
VH: EVQLVQSGAEVKKPGASVKVSCKASGYTFTEHSIYWLRQAPGQRLEIIGRIDPKNGRTYFVDKFKNRATLTTDTSASTAYMELSSLRSEDTAVYFCARIDGFYFDFWGQGTLVTVSS
VL: DIQLTQSPSFLSASVGDRVTITCKGSQNVNKYLVWYQQKPGKAPKLLIYSTDNLQSGIPSRFSGSGSGTEYTLTISSLQPEDFATYYCYQYNNGFTFGQGTKVEIK
notes: VL: F87Y against h15C8.L1H1; FR/HVR pieces
Question: Which results are given for B3?
Answer: Kd (human TIGIT protein [1]): 0.64 nM; koff (human TIGIT protein [1]): 0.000611 s⁻¹; kon (human TIGIT protein [1]): 955000 M⁻¹ s⁻¹; Kd [2]: 1.15 nM; koff [2]: 0.000559 s⁻¹; kon [2]: 485000 M⁻¹ s⁻¹

B4: h15C8.L5H1 (antibody, V domains shown)
VH: EVQLVQSGAEVKKPGASVKVSCKASGYTFTEHSIYWLRQAPGQRLEIIGRIDPKNGRTYFVDKFKNRATLTTDTSASTAYMELSSLRSEDTAVYFCARIDGFYFDFWGQGTLVTVSS
VL: DIQLTQSPSFLSASVGDRVTITCKGSQNVNKYLVWYQQKPGKAPKLLIYSTDNLQSGVPSRFSGSGSGTEFTLTISSLQPEDFATYYCYQYNNGFTFGQGTKVEIK
notes: VL: I58V, Y71F, F87Y against h15C8.L1H1; FR/HVR pieces
Question: What does the source list for B4?
Answer: Kd (human TIGIT protein [1]): 0.83 nM; koff (human TIGIT protein [1]): 0.000562 s⁻¹; kon (human TIGIT protein [1]): 674000 M⁻¹ s⁻¹; Kd [2]: 2.68 nM; koff [2]: 0.000752 s⁻¹; kon [2]: 281000 M⁻¹ s⁻¹

B5: h15C8.L5aH9a (antibody, V domains shown)
VH: EVQLVQSGAEVKKPGASVKVSCKASGYTFTEHSIYWLRQAPGQRLEIMGRIDPKNGRTYFVDKFKNRATITTDTSASTAYMELSSLRSEDTAVYYCARIDGFYFDFWGQGTLVTVSS
VL: DIQLTQSPSFLSASVGDRVTITCKGSQNVNKYLVWYQQKPGKAPKLLIYSTDNLQSGVPSRFSGSGSGTEYTLTISSLQPEDFATYYCYQYNNGFTFGQGTKVEIK
notes: Final humanized 15C8; keeps rat VH I47, L37, A67, T71 and VL Y71; FR/HVR pieces
Question: B5 was tested. Which Kd (human TIGIT protein [1]) did it give?
Answer: 0.38 nM

Question: And the koff (human TIGIT protein [1])?
Answer: 0.000421 s⁻¹

Question: And the kon (human TIGIT protein [1])?
Answer: 1.12e+06 M⁻¹ s⁻¹

Question: And the Kd [2]?
Answer: 1.03 nM

Question: What about the koff [2] of the same binder?
Answer: 0.000613 s⁻¹

Question: What about the kon [2] of the same binder?
Answer: 596000 M⁻¹ s⁻¹

B6: h7E7.L1H1 (antibody, V domains shown)
VH: EVQLVQSGAEVKKPGASVKVSCKASGYTFTEYSIYWVRQAPGQRLEIIGRIDPKNGRTYYVDKFKNRATLTADTSASTAYMELSSLRSEDTAVYFCTRIYGFYFDFWGQGTLVTVSS
VL: DIQLTQSPSFLSASVGDRVTITCKGSQNVNKYLVWYQQKPGKAPKLLIYNTDNLQSGIPSRFSGSGSGTEYTLTISSLQPEDFATYFCYQYNNGFTFGQGTKVEIK
notes: First humanized version; FR/HVR pieces in order; also called h1.7E7.L1H1
Question: Which Kd (human TIGIT protein [1]) does the source give for B6 here?
Answer: 0.23 nM

Question: What about the koff (human TIGIT protein [1]) of the same binder?
Answer: 0.000476 s⁻¹

Question: What about the kon (human TIGIT protein [1]) of the same binder?
Answer: 2.06e+06 M⁻¹ s⁻¹

Question: And the Kd [2]?
Answer: 0.36 nM

Question: What about the koff [2] of the same binder?
Answer: 0.000152 s⁻¹

Question: And the kon [2]?
Answer: 418000 M⁻¹ s⁻¹

Question: What about the Kd (human TIGIT protein [3]) of the same binder?
Answer: 0.33 nM

Question: What about the Kd [4] of the same binder?
Answer: 0.51 nM
